Columns and labels:
Assay in all cases: Ala-scan peptide array of hIL20 74-96 on cellulose; fluorescein-labelled antibody; fluorescence as OD
[1] = biological target: T1, Peptide no. 41 (Figure 8A)
T1 construct: Ala-scan peptide on the array; also called Peptide no; Q75A
T1 peptide: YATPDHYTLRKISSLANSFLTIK
Method: (§1) The screenings were done using fluorescence labelled antibodies. The labelling was done by gel-filtering the antibody stock against 1% NaHCO3, using NAP5 column (GE Healthcare according the manual from manufacturer. This was followed by adding 25 mole equivalents of 5(6)-carboxyfluorescein N-hydroxysuccinimide ester (Sigma, C1609) dissolved in DMSO. The coupling was allowed to continue for 2 hours followed by a gelfiltration against TRIS washing buffer (50 mM TRIS, pH=7.4, 0.15M NaCl, 0.1 M ArgHCl, 0.05% Tween 20) in order to removed uncoupled fluorescein.
(§2) Screening of arrays were done by adding 10 μl of antibody to 30 ml incubation buffer (0.5% BSA, 50 mM TRIS, pH=7.4, 0.15M NaCl, 0.1 M ArgHCl, 0.05% Tween 20). The sheets were incubated for 1-2 hours, followed by washing five times with washing buffer. […] The fluorescence intensity were measured and transformed into digits that were exported to Prism 5 (Graph Pad Software, USA) for further analysis.

[2] = biological target: T2, Peptide no. 42 (Figure 8A)
T2 construct: Ala-scan peptide on the array; also called Peptide no; T76A
T2 peptide: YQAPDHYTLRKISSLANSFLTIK
Method: as §1, §2

[3] = biological target: T3, Peptide no. 43 (Figure 8A)
T3 construct: Ala-scan peptide on the array; also called Peptide no; P77A
T3 peptide: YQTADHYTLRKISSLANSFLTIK
Method: as §1, §2

[4] = biological target: T4, Peptide no. 46 (Figure 8A)
T4 construct: Ala-scan peptide on the array; also called Peptide no; Y80A
T4 peptide: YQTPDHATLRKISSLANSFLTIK
Method: as §1, §2

[5] = biological target: T5, Peptide no. 47 (Figure 8A)
T5 construct: Ala-scan peptide on the array; also called Peptide no; T81A
T5 peptide: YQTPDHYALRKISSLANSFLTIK
Method: as §1, §2

[6] = biological target: T6, Peptide no. 48 (Figure 8A)
T6 construct: Ala-scan peptide on the array; also called Peptide no; L82A
T6 peptide: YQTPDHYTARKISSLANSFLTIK
Method: as §1, §2

[7] = biological target: T7, Peptide no. 49 (Figure 8A)
T7 construct: Ala-scan peptide on the array; also called Peptide no; R83A
T7 peptide: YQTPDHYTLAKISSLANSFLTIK
Method: as §1, §2

[8] = biological target: T8, Peptide no. 50 (Figure 8A)
T8 construct: Ala-scan peptide on the array; also called Peptide no; K84A
T8 peptide: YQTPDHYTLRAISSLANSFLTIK
Method: as §1, §2

[9] = biological target: T9, Peptide no. 51 (Figure 8A)
T9 construct: Ala-scan peptide on the array; also called Peptide no; I85A
T9 peptide: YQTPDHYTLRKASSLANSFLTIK
Method: as §1, §2

[10] = biological target: T10, Peptide no. 52 (Figure 8A)
T10 construct: Ala-scan peptide on the array; also called Peptide no; S86A
T10 peptide: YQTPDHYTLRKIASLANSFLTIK
Method: as §1, §2

[11] = biological target: T11, Peptide no. 53 (Figure 8A)
T11 construct: Ala-scan peptide on the array; also called Peptide no; S87A
T11 peptide: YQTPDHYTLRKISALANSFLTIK
Method: as §1, §2

[12] = biological target: T12, Peptide no. 54 (Figure 8A)
T12 construct: Ala-scan peptide on the array; also called Peptide no; L88A
T12 peptide: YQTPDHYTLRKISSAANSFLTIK
Method: as §1, §2

[13] = biological target: T13, Peptide no. 55 (Figure 8A)
T13 construct: Ala-scan peptide on the array; also called Peptide no; N90A
T13 peptide: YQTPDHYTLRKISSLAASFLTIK
Method: as §1, §2

[14] = biological target: T14, Peptide no. 60 (Figure 8A)
T14 construct: Ala-scan peptide on the array; also called Peptide no; I95A
T14 peptide: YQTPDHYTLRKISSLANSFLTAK
Method: as §1, §2

Measured: binding result

B1: human anti-hIL20 monoclonal antibody 5B7 (antibody, human IgG4, V domains shown)
VH: QVQLVQSGAEVKRPGASVKVSCKASGYTFSSHIMHWVRQAPGQRLEWMGWINAGYGNTKYSQNFQDRVTITRDTSASTAYMELISLRSEDTAVYYCAREPLWFGELSPHDYYGMDVWGQGTTVTVSS
VL: AIQLTQSPSSLSASVGDRVTITCRASQGISSALAWYQQKPGKAPKLLIYDASSLESGVPSRFSGSGSGTDFTLTISSLQPEDFATYYCQQFNSYPLTFGGGTKVEIKR
notes: described as human IgG4; also called 5B7-wt
binds: all assays above
